# Experimental data taken from the nanobody polyreactivity screen of Harvey et al. (2022).
# Assay: yeast display, Sf9 membrane polyspecificity reagent, FACS + sequencing; frameworks hold sequencing errors
# How it was run: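 Galactose-induced (36–48 hours) yeast carrying a synthetic nanobody display library were exposed to 10% biotinylated, detergent-solubilized Sf9 membrane reagent at 4 °C for 1 hour. FACS followed streptavidin microbead enrichment, using low and high (top ~1%) gates for expression (anti-HA) and reagent binding (streptavidin). Colony PCR, MiSeq 2 × 250 sequencing and CDR-length filtering followed. Labels for polyreactivity reflect the gate of origin.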
row,Sequence,polyreactivity (PSR sort gate)
1,QVQLEESGGSLVQAGGSLRLSCAASGRTFTVNDMGWYRQAPGKERELVADIRGSGVSTSYADSVKGRFTISRDNAKNTVYLQMNSLKPADTAVYYCATDPVKSGYQRYYYWGQGTHVTVSS,low polyreactivity
2,QVQLVESGGGLVQAGGSLRLSCAASGRTFTTYTMGWYRQAPGKERELVASINYRGGRTYYADSVKGRFTISRDNAKNTVYLQMNSLKPEDTAVYYCAKRRYYRRRQYYHYDYWGQGTQVTVSS,high polyreactivity
3,QVQLVESGGCLVQAGGRLRLSCAASGSTFAYYSMGWDRQAPGKERELVAAITDSGGSTYYADSVKGRFTISRDNAKNTVYLQMNSLIPEDTAVYYCAVYGPWAYYPMGYWGQGSQVTVSS,low polyreactivity
4,QVQLVESGGGLVQAGGSLRLSCAASGRIFRYYAMGWYRQAPGKERELVAAISYSTGGTYYADSVKGRFTISRDNAKNTVYLQMNSLIPEDTAVYYCAARGPLDRYGYWGQGTQVTVSS,high polyreactivity
5,QVQLVESGGGLVQAGGSLRLSCAASGRIFWYYAMGWYRQAPGKERELVATISYVGGNTYYADSVKGRFTISRDNAKNTVYLQMNSLKPDDTAVYYCARVPYAYLPYKPFQQYSYDYWGQGTQVTVSS,high polyreactivity
6,QVQLVESGGGLVQAGGSLRLSCAASGSTFTPNAMGWYRQVPGKERELVASITIGGSTYADSVKGRFTISRDNAKNTVYLQMNSLKPEDTAVYYCNADWNWYPFLYSRMDYWGQGTQVTVSS,low polyreactivity
7,QVQLVESGGGLVQAGGSLRLSCAASVSIFSSYAMGWYRQAPGKERELVAAISSSGDSTDADSVKGRFTISRDNAKNTVYLQMNSLKPEDTAVYYCAVGGAGSDDYWGHGTQVTVSS,low polyreactivity
8,QVQLVESGGGLVQAGGSLRLSCAASGRTLDVYAMGWSRQAPGKERELVASITSSGARTYYADSVKGRFTISRDNAKNTVYLQMNSLKPEDTAVYYCAARVYRYSASRAYDYWGQGSQVTVSS,high polyreactivity
9,QVQLVESGGGLVQAGGSLRLTCAASGRTFYINAMGWYRQAPGKERELVAAISSGGSTNYADSVKGRFTISRDNAKNTVSLQMNSLKPEDTAVYYCNARLRSFTLSDAEYEYWGQGTQVTVSS,low polyreactivity
10,QVQLVDSGGGLVQAGGSLRLSCAASGSIFSVYSMGGNRQATGKERELVASISRTGTTNYADSVKGSFTISRDNAKNTVYLQMNSLKPEDTAVFYCATDFTDWDVFLIKEFGYDYWGQGTQVTVSS,low polyreactivity
11,QVQLVESGGGLVQAGGSLRLSCAASGRTFAAYAMGWYRQAPGKERELVAAITSGGGTYYADSVKGRFTISRDNAKNTVYLQMNSLKPEDTAVYYCAADYISVYGYEYYYWGQGTQVTVSS,high polyreactivity
12,QVQLVESGGGLVQAGGSLRLSSAASGITFDDYAMGWNRQAPGKERELVAAITWSGDSTYYADSVKGRFTISRDNAKNTVYLQMNSLKPEDTAVYYCAAVSYYYSGYIRGYWGQGTQVTVSS,high polyreactivity
13,QVQLVESGGGLVQAGGSLRLSCAASGNIFRANPMGWYRQAPGKERELVASITVSGGSTNYADSVKGRFTISRDNAKNTVYLQMNSLKPEDTAVYYCAKTLTRSVKFSTVLLGPTPDYYWGQGTQVTVSS,high polyreactivity
14,QVQLVESGGGLVQAGGSLRLSCAASGFTLYYYDKGWYRQSPGKERELVAAISYSGGTTYYADSVKGRFTISRDNAKNTVYLQMNSLNPDDTAVYYCAAEVGGYWADEYLGYDYWGLGTQVTVSS,low polyreactivity
15,QVQLVESGGGLVQAGGSLRLSCAASGFTFGAYAMGWYRQAPGTERELVAAISYRGGRTYYADSVKGRFTISRDNAKNTVYLQMNSLKPEDTAVYYGNTVYLVTWRVKGYYWGQGTQVTVSS,low polyreactivity
16,QVKLVESGGGLVQAGGSLRLSCAASGFTIRSYFIVWNRQAPGKERELVAAITRRGGRTYYADSVKGRFTISRDNAKNTVFLQMNSLKPEDTAVYYCAAGPYLVDVDYWGQGTQVTVSS,high polyreactivity
17,QVQLQESGAGLVQAGGSLRLSCAASGSIIHLHIMCWYRQAPRKERESVAAISYGTSTYYADSVKGRFTICRDNAKNTVYLQMNSPKPDDTAVYYCAALFLVSKHHHYWGEGTQVTVSS,low polyreactivity
18,QVQLVDSGGGLVQAGGSLRLSCAASGLIFPYNAMGWYRQAPGKERELVAAIDSGVTTYYADSVKGRFTISRDNAKNTVYLQMNSLKPEDTAVYYCAAVGLPGPEGDSWGQGTQVTVSS,low polyreactivity
19,QVQLVESGGGLVQAGGSLRLSCAASGLIFFYYAMGWYRQAPGKERELVATINWNGGSTYYADSVKGRFTISRDNAKNTVYLQMNSLKPEDTAVYYCAADAPAGGDSDNDYWGQGTQVTVSS,high polyreactivity
20,QVQLVESGGGLVQAGGSLRLSCAASGRTFDEYAMVWYRQAPGKERELVAAINSSGNTYYADSVKGRFTISRDNAKNTVYLQMNSLKPEDTAVYYCAVRSYNTISDDMDYWGQGTQVTVSS,low polyreactivity
21,QVQLVESGGGLVQAGGSLRLSCAASGLIFSRNAMGWYRQAPGKERELVAAISTGGSTYYADSVKGRFTISRDNAKNTVYLQMNSLKPEATAVYDCAAAPGYIYEYWGQGTQVTVSS,low polyreactivity
22,QVQLVESGGGLVQAGGSLRLSCAASGRILYSYPMGGYRQAPGKERELVASISLSGGRTYADSVKGRFTISRDNAKNTVFLQMNSLKPVDTAVYYCNARIRTSRYLWPFDYWGQGTQVTVSS,high polyreactivity

row,Sequence,polyreactivity (PSR sort gate)
1,QVQLVESGGGLVQAGGSLRLSCAASGFTFAYYDMGWYRQAPGKERELVAAISQSGGSTYYADSVKGRFTISRDNAKNTVYLQMKSLKPEDTAVYYCNAYAYTQSYEYDYWGQGTQVTVSS,high polyreactivity
2,QVQLVESGGGLVQAGGSLRLSCAASGSIITWNAMGWYRQAPGKERELVAAIDWDGGSTYYADSVKGRFTISRDNAKNTVYLQMNSLKPEDTAVYYCAATYGWYTGRYPSGHYYYWGQGTQVTVSS,low polyreactivity
3,QVQLVESGGGLVQAGGSLRLSCAASGSIFKYYVMGWYRQAPGKEREFVAVISWSGGTTYYADSVKGRFTISRDNAKNTVYLQMNSLKPEDTAVYDCNKDYIYVGVPRYRSINHDYWGQGTQVTVSS,low polyreactivity
4,QVQLVETGGGLVQAGGSLRLSCAASGRTFVYNGMGWYRQAPGKERELVAAISGSGGSTYYADSVKGRFTISRDNAKNTVYLQMNSLKPEDTAVYYCATRQGYRLYYWGQGTQVTVSS,high polyreactivity
5,QVQLVESGGGLVQAGGSLRISCAASGSIFRQYAMGLYRQAPGKEWELVAAITYSGGNTYYADSVKGRFTISRDNAKNTVYLQMNSLKPEDTAVYYCAADYGSRSWEYNYWGQGTQVTVSS,low polyreactivity
6,QVQLVESGGGLVQAGGSLRISCAPSGSTFYTNAMGWYRQAPGKEREFVAAISWSGSSTYADSVKGRFTISRDNAKNTVYLQMNSLKPEDTAVYYFAADWFKLRTDYYWGQGTQVTVSS,low polyreactivity
7,QVQLVESGGGLVQAGGSLRLSCAPSGLTFSNYAMGWYRQAPCKERELVAGISSSGGTTYYADSVKGRFTISRDNAKNTVFLQMNSLKPEDTAVYYCATRRHYGSFWYDYWGQGTQVTVSS,high polyreactivity
8,QVQLVESGGGLVQAGGSLRLSCAASGITFRWYAMGWYRQAPGKEREFVAAIDASGSTYYADSVKGRFTISRDNAKNTVYLQMNSLKPEDTAVYYCAADWDEYFGGDYWGQGTQVTVSS,low polyreactivity
9,QVQLVESGGGLVQAGGSLRLSCAASGSTFENNVMAWYRQAPGKERELVATITWGDGSTSYADSVKGRFTISRDNAKNTVYLQMNSLKPEDTAVYYCAADSAENVYRGYYWGQGTQVTVSS,low polyreactivity
10,QVQLVESGGGIFQAGGSLRLSCAASGSTFDYNAMGWYRQAPGKERELVADITGSGASTSYADSVKGRFTISRDNEKNTVYLQMKILKPEDTAVYYCNADDSYFYELYGYWGQGTQVTVSS,low polyreactivity
11,QVQLVESGGGLVQAGGSLRLSCAASGSIFPIYTMGWYRQAPGKERELVAAITYNAGSTYYADSVKGRFTISRDNAKNTVYLQMNSLKPEDTAVYYCAADRYYDRTFPGYDYWGQGTQVTVSS,low polyreactivity
12,QVQLVESGGGLAQAGGSLRLSCAASGSTFLYYAMGWYRQAPGKERELVDAIDSGGSTYYADSVKGRFTISRDNAKNTVYLQMNSLKPEDTAVYYCNADFADHWPPNGPGAHDYWGQGTQVTVSS,low polyreactivity
13,QVQLVESAGGLVQAGGSLRLSCAASGRTLYRYAMGWYSQAPGKERELVAAIRWSGGSTYYADSVKGRFTISRDNAKNTVYLQMNSLKPEDTAVYYCNAGRSWRRTHYDYWGQGTQVTVSS,high polyreactivity
14,QVQLVESGGGLVQAGGSLRLSCAASGSSFTNYGMGWYRQAPGKERELVAAISESGDTTYYADSVKGRFTISRDNAKNTVYLQMNSLKPEDTAVYYCNRAHGRSRYSRDYDSWGQGTQVTVSS,low polyreactivity
15,QVHLVESGGGLVQAGGSLRLNCAASGRTFTEYAMGWYTPAPGKERELVAAITTVGSTYYADSVKGRFTISRDNAKNTVDIQMNSQKPEDTAVYYCDVERDYWTKASYYWGQGTQVTVSS,low polyreactivity
16,QVQLVESGGGLVQAGGSLRLSCAASGNIFWRNAMGWYRQAPGKERELVAAISRRAVSTYYADSVKGRFTISRDNAKNTVYLQMNSLKPEDTAVYYCAARLGGENDYWGQGTQVTVSS,high polyreactivity
17,QDQLVESGGGLVQAGGSLRLSCAASGRIFAGYAMGWYRQAPGKERELVASIRSSGSTYYADSVKGRFTISRDNAKNTVYLQMNSLKPEDTAVYYCAARSGYFRSRFDYWGQCTQVTVSS,high polyreactivity
18,QVQLVESGGGLVQAGGSLRLSCAASGRTFPYYAMGWYRQAPGKERELVAAISSSGGRTYYADSVKGRFTISRDNAKNTVYLQMNSLKPEDTAVYYRNVDAWYPYQGFLVGYYYWGQGTQVTVSS,low polyreactivity
19,QVQIVESGGGLVQAGGSLRLSCAASGRTFVVNAMGWYRQAPGKERELVASISNKGSTYYADSVKGRFTISRDNAKNTVYLQMNSLNPEDTAVYYCAADEYWSWDGTRYGVHYYYWGQGTQVTVSS,low polyreactivity
20,QVQLVESGAGLVQAGGSLRLSCAASGSTLVTNAMGWYRQAPGKERELVAAITFSGGTTYYADSVKGRFTISRDNAKNTVYLQMNSLKPEDTAVYYCAAEIWLEYVGYDYWGQGTQVTVSS,high polyreactivity
21,QVQLVESGGGLVQAGGSLRLSCAASGRTFSYNAMGWYRQAPGKERELVAVISASGGRTNYADSVKGRFTISRDNAKNTVYLQMNSLKPEDTAVYYCNALFGLGVKGYDYWGQGTQVTVSS,low polyreactivity
